Results published in PMC5951972.

Target: MBP-TSR4+5, recombinant thrombospondin repeats 4 and 5 of human properdin expressed in tandem, fused to maltose-binding protein (human)
Test: SEC

MBP-TSR4+5, recombinant thrombospondin repeats 4 and 5 of human properdin expressed in tandem, fused to maltose-binding protein (domain or fragment)
percent migrating as dimer: 40%
stoichiometry N: 2
